± gives the standard deviation of the averaged measurements.
System: ATP
Assay: switch fluorescence ratio, 500 uM ATP over buffer (Cy3 cluster intensity, sum of 5 cycles each) (fold (ratio)); higher = stronger signal-on switching upon ATP binding; sequences stand for … in TCGTCGGCAGCGTCAGATGTGTATAAGAGACAGTTTTTTTTTTTTTTTTTTTTTTTTT…TC
Conditions: aptamer strand: ATP DNA aptamer (quencher-CACCTGGGGGAGTATTGCGGAGGAAGG + anchor), 100 nM annealed; ATP concentration: 500 uM
Procedure, shortened: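 Switching-strand clusters labelled with Cy3 on a modified Illumina MiSeq flow-cell were annealed to 100 nM quencher-labelled ATP aptamer, imaged in selection buffer, and re-imaged after 15 min with 500 uM ATP at 22 °C. This was done over five cycles with NaOH stripping and re-annealing in between. The fluorescence ratio is summed target-cycle over summed buffer-cycle Cy3 intensity per cluster, averaged per switch-domain sequence, excluding clusters outside 100-1000 RFU.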
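Note: ATP exposure 15 min at 22 °C before imaging.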

For TGGGTAAATT, the switch fluorescence ratio was 0.983 ± 0.014.
For TGGGTAAGCA, the switch fluorescence ratio was 1.03 ± 0.023.
With TGGGTAAGTT the switch fluorescence ratio was 0.996 ± 0.039.
For TGGGTACGTC, the switch fluorescence ratio was 0.998 ± 0.026.
TGGGTACTGG gave a switch fluorescence ratio of 1.02 ± 0.018.
TGGGTAGATA was tested, and the switch fluorescence ratio was 0.985 ± 0.045.
With TGGGTAGTGC the switch fluorescence ratio was 0.997 ± 0.029.
Work on TGGGTATAGA yielded a switch fluorescence ratio of 1.01 ± 0.032.
Work on TGGGTATGTT yielded a switch fluorescence ratio of 1.02 ± 0.014.
Work on TGGGTATTAT yielded a switch fluorescence ratio of 0.9997 ± 0.0052.
With TGGGTCGGGG the switch fluorescence ratio was 0.985 ± 0.016.
For TGGGTGAAAA, the switch fluorescence ratio was 1.001 ± 0.0036.
TGGGTGAAGG gave a switch fluorescence ratio of 0.999 ± 0.022.
For TGGGTGATAA, the switch fluorescence ratio was 1.04 ± 0.048.
Work on TGGGTGATGT yielded a switch fluorescence ratio of 0.996 ± 0.066.
TGGGTGCATT was tested, and the switch fluorescence ratio was 1.014 ± 0.0044.
For TGGGTGCCGA, the switch fluorescence ratio was 0.989 ± 0.011.
For TGGGTGCGCA, the switch fluorescence ratio was 1.03 ± 0.025.
Work on TGGGTGGCTC yielded a switch fluorescence ratio of 1.011 ± 0.0015.
TGGGTGGTGG gave a switch fluorescence ratio of 0.983 ± 0.016.
TGGGTGTCCA showed a switch fluorescence ratio of 1 ± 0.021.
TGGGTGTGGA was tested, and the switch fluorescence ratio was 1.01 ± 0.051.
Sequence TGGGTGTTTT has a switch fluorescence ratio of 1.05 ± 0.12.
Work on TGGGTTAAAT yielded a switch fluorescence ratio of 0.995 ± 0.023.
TGGGTTACAT was tested, and the switch fluorescence ratio was 1.01 ± 0.031.
For TGGGTTAGAG, the switch fluorescence ratio was 0.9878 ± 0.0052.
In the case of TGGGTTAGGC, the switch fluorescence ratio is reported as 0.97 ± 0.013.
With TGGGTTATGA the switch fluorescence ratio was 0.9941 ± 0.0084.
TGGGTTATTG gave a switch fluorescence ratio of 0.998 ± 0.019.
In the case of TGGGTTCAGG, the switch fluorescence ratio is reported as 1 ± 0.015.
For TGGGTTCGTA, the switch fluorescence ratio was 0.994 ± 0.031.
For TGGGTTGTTT, the switch fluorescence ratio was 0.986 ± 0.031.
TGGGTTTAAT gave a switch fluorescence ratio of 1.03 ± 0.018.
With TGGGTTTGTT the switch fluorescence ratio was 0.986 ± 0.03.
With TGGGTTTTAA the switch fluorescence ratio was 0.999 ± 0.025.
With TGGTAAAGGC the switch fluorescence ratio was 0.979 ± 0.042.
For TGGTAAATGG, the switch fluorescence ratio was 1.01 ± 0.019.
Sequence TGGTAATAGT has a switch fluorescence ratio of 1.02 ± 0.038.
TGGTAATGTG gave a switch fluorescence ratio of 1.01 ± 0.096.
In the case of TGGTAATTAT, the switch fluorescence ratio is reported as 0.974 ± 0.023.
In the case of TGGTACGGTT, the switch fluorescence ratio is reported as 0.975 ± 0.015.
TGGTAGACGT gave a switch fluorescence ratio of 0.968 ± 0.016.
In the case of TGGTAGGAGA, the switch fluorescence ratio is reported as 0.979 ± 0.013.
For TGGTAGGGGA, the switch fluorescence ratio was 1.04 ± 0.03.
TGGTAGGGGC gave a switch fluorescence ratio of 1.02 ± 0.057.
TGGTAGTGGG was tested, and the switch fluorescence ratio was 0.98 ± 0.026.
TGGTATAATC was tested, and the switch fluorescence ratio was 1.001 ± 0.0038.
TGGTATAGTC was tested, and the switch fluorescence ratio was 1.001 ± 0.0059.
TGGTATCAGC gave a switch fluorescence ratio of 0.999 ± 0.048.
TGGTATGCCC showed a switch fluorescence ratio of 1.04 ± 0.088.
TGGTATGCGG gave a switch fluorescence ratio of 1.02 ± 0.013.
With TGGTATTTTG the switch fluorescence ratio was 0.977 ± 0.024.
For TGGTCAGCTT, the switch fluorescence ratio was 0.994 ± 0.017.
Sequence TGGTCAGGGT has a switch fluorescence ratio of 0.9735 ± 0.0097.
TGGTCCAGG gave a switch fluorescence ratio of 1.15 ± 0.14.
Sequence TGGTCCTATG has a switch fluorescence ratio of 1.01 ± 0.054.
TGGTCGCATT showed a switch fluorescence ratio of 1.01 ± 0.034.
TGGTCGGGGC gave a switch fluorescence ratio of 0.974 ± 0.025.
In the case of TGGTCGTACG, the switch fluorescence ratio is reported as 0.937 ± 0.071.
With TGGTCGTATT the switch fluorescence ratio was 0.9577 ± 0.0063.
For TGGTCGTGTG, the switch fluorescence ratio was 1 ± 0.027.
TGGTCTTCGT showed a switch fluorescence ratio of 0.992 ± 0.057.
TGGTGACCGT showed a switch fluorescence ratio of 1 ± 0.025.
Sequence TGGTGAGGGA has a switch fluorescence ratio of 0.99 ± 0.014.
TGGTGAGGGC was tested, and the switch fluorescence ratio was 0.9816 ± 0.0077.
Sequence TGGTGCAATC has a switch fluorescence ratio of 2.36 ± 0.86.
Work on TGGTGCAGCT yielded a switch fluorescence ratio of 1.005 ± 0.0059.
With TGGTGCCCAC the switch fluorescence ratio was 1.01 ± 0.027.
Sequence TGGTGCGGCG has a switch fluorescence ratio of 1.09 ± 0.031.
For TGGTGCTGTT, the switch fluorescence ratio was 0.985 ± 0.03.
For TGGTGGAGGG, the switch fluorescence ratio was 1 ± 0.032.
In the case of TGGTGGCACG, the switch fluorescence ratio is reported as 0.965 ± 0.011.
In the case of TGGTGGCCCT, the switch fluorescence ratio is reported as 1.01 ± 0.06.
For TGGTGGGGTA, the switch fluorescence ratio was 0.998 ± 0.022.
With TGGTGGGTCG the switch fluorescence ratio was 1.08 ± 0.069.
TGGTGGTGGG was tested, and the switch fluorescence ratio was 1.02 ± 0.018.
TGGTGGTTCT was tested, and the switch fluorescence ratio was 0.987 ± 0.029.
TGGTGTATGG was tested, and the switch fluorescence ratio was 1.01 ± 0.035.
With TGGTGTGGAA the switch fluorescence ratio was 0.9806 ± 0.0027.
TGGTGTGGGT gave a switch fluorescence ratio of 0.989 ± 0.014.
For TGGTGTGTAC, the switch fluorescence ratio was 1.06 ± 0.076.
TGGTGTTTGC gave a switch fluorescence ratio of 1 ± 0.038.
For TGGTGTTTT, the switch fluorescence ratio was 0.998 ± 0.024.
Work on TGGTTAACAG yielded a switch fluorescence ratio of 0.999 ± 0.022.
Work on TGGTTAAGAT yielded a switch fluorescence ratio of 0.999 ± 0.038.
Work on TGGTTATCTT yielded a switch fluorescence ratio of 0.969 ± 0.011.
In the case of TGGTTATGAA, the switch fluorescence ratio is reported as 0.998 ± 0.03.
With TGGTTATGGC the switch fluorescence ratio was 0.923 ± 0.082.
With TGGTTATGGT the switch fluorescence ratio was 0.992 ± 0.037.
Work on TGGTTCATCG yielded a switch fluorescence ratio of 0.97771 ± 0.00071.
Work on TGGTTCGTCT yielded a switch fluorescence ratio of 0.955 ± 0.058.
TGGTTCTGTT gave a switch fluorescence ratio of 0.975 ± 0.018.
In the case of TGGTTGAACG, the switch fluorescence ratio is reported as 0.996 ± 0.019.
In the case of TGGTTGAGGC, the switch fluorescence ratio is reported as 1.01 ± 0.021.
For TGGTTGATAG, the switch fluorescence ratio was 0.9916 ± 0.0065.
TGGTTGCCTG was tested, and the switch fluorescence ratio was 0.993 ± 0.056.
For TGGTTGCTTG, the switch fluorescence ratio was 1.01 ± 0.034.
TGGTTGGAAG gave a switch fluorescence ratio of 0.987 ± 0.016.
In the case of TGGTTGGCTC, the switch fluorescence ratio is reported as 0.985 ± 0.042.
In the case of TGGTTGGGTA, the switch fluorescence ratio is reported as 0.997 ± 0.018.

From the supplement of paper PMC10126150
